# Assay results reported in patent US11098109B2, “Single-chain variable fragment anti-CD133 antibodies and uses thereof” (REGENTS OF THE UNIVERSITY OF MINNESOTA, priority 2010, dated 2021).
# Tests used:
# CD133 = biological target: T1, CD133 (Homo sapiens, UniProt O43490); experiment: Flow cytometry of carcinoma lines with FITC-labeled anti-CD133 scFv; type: binding
# T1 construct: endogenous in cells
# T1 sequence (O43490 20-865): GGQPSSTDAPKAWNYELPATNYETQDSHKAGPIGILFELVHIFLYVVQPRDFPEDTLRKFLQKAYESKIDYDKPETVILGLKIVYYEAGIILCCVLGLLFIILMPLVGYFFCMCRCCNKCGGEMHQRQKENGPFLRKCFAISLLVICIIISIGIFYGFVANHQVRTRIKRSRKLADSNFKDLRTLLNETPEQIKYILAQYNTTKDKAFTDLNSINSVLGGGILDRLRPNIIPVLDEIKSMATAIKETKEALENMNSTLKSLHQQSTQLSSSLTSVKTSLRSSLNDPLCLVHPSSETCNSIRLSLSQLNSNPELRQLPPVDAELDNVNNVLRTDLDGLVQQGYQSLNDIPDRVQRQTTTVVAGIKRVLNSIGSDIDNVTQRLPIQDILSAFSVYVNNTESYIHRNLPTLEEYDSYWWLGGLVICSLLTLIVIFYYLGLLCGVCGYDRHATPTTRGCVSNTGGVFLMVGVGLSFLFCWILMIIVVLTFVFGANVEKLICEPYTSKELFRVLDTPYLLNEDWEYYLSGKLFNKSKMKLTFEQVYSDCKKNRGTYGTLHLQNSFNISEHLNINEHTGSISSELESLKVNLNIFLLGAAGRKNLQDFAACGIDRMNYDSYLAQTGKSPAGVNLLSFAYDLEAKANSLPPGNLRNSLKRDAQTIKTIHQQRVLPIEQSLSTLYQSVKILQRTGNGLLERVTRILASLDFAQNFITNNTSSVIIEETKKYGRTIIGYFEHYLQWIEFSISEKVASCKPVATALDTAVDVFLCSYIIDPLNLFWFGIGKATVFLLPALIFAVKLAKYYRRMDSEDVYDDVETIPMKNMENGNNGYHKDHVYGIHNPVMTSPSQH
# Protocol: We detected about 5% CD133 cells/95% CD133-cells in the various carcinomas that we examined. […] The anti-CD133 scFV was labeled with FITC and then standard flow cytometry was performed. The levels of CD133 expression (4-7.1%) are in agreement with values reported values. CaCo-2 colorectal carcinoma is a cell line known to express high levels of CD133+ cells so we included it as a positive control. Anti-CD45-FITC and anti-CD19 FITC are negative controls that preferentially recognize hematopoietic cells.
# CD133 expression on UMSCC-11B cells on head and neck cancer cells. CD133 expression was measured on the UMSCC-11B cell line using flow cytometery. Cells were reacted with anti-CD133scFV-FITC for 30 minutes in the dark on ice. Cells were then washed 3× using saline and studied using a flow cytometer (FACScanto™ II, BD Biosciences, Franklin Lakes, N.J.). The blank (untreated cells) was used to establish the gate of non-positive cell activity. CD133 was expressed on both head and neck cancer cell lines, NA and UMSC-11B, at 5.9% and 6% respectively (Table 13). The Caco-2 colorectal carcinoma was included as a positive control cell line since it known to overexpress CD133. Controls included cells reacted with anti-EpCam-FITC, anti-CD45-FITC, and anti-CD19-FITC. Expression of CD45 and CD19 is mostly restricted to normal malignant hematopoietic cells.
# human prominin-1 = biological target: T2, human prominin-1 (Homo sapiens, UniProt O43490, DEL381-611); experiment: ELISA of hybridoma supernatant on recombinant C-prominin-1; type: binding; details: supernatant at 1:1, 1:10, 1:100, 1:500 dilution
# T2 construct: His-tag (6xHis) (N); made in house
# T2 sequence (O43490 with tags, fused parts or gaps DEL381-611): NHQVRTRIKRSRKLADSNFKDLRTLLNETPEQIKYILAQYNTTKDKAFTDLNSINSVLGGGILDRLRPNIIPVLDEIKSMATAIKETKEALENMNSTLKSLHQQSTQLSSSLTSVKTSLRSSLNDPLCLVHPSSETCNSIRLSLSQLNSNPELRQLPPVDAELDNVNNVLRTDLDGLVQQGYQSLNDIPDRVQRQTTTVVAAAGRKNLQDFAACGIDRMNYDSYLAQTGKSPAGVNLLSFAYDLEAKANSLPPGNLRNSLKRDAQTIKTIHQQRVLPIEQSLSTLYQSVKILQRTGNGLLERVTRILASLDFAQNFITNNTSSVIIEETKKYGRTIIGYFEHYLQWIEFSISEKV
# Protocol: The hybridoma cells were cultured in DMEM with 10% FBS. When the cells were confluent, they were grown for additional 2-3 days. The supernatant was harvested for ELISA. The recombinant C-prominin-1 protein was coated at a 1:1000 dilution in 96-well plate and incubated at 4° C. ovemight. The coating buffer was discarded, the protein was washed 1 time, 300 μl/well of 5% milk buffer was added, and incubated at 4° C. overnight.
# The hybridoma supernatant was diluted with 5% milk buffer at 1:1, 1:10, 1:100, 1:500 and 50 μL/well was added and incubated at 37° C. for one hour. The wells were washed four times, and 50 μL/well goat anti-mouse secondary antibody-HOURP conjugate was added at a dilution of 1:2000 and incubated at 37° C. for one hour. Washed four times, and added 50 μL/well substrate.
Molecule,"% Positive Cells, CD133+ (CD133; BT474, breast) [%]","% Positive Cells, CD133+ (CD133; Caco-2, colon, positive control line, listed as anti-CD133 scFV) [%]","% Positive Cells, CD133+ (CD133; Caco-2, colon, positive control line, listed as anti-CD133scFV-FITC) [%]","% Positive Cells, CD133+ (CD133; MDA-MB231, breast) [%]","% Positive Cells, CD133+ (CD133; MDA-MD468, breast) [%]","% Positive Cells, CD133+ (CD133; MiaPaCa-2, pancreas) [%]","% Positive Cells, CD133+ (CD133; NA, head & neck) [%]","% Positive Cells, CD133+ (CD133; SKBR3, breast) [%]","% Positive Cells, CD133+ (CD133; UMSCC-11B, head & neck, listed as anti-CD133 scFV) [%]","% Positive Cells, CD133+ (CD133; UMSCC-11B, head & neck, listed as anti-CD133scFV-FITC) [%]",levels of CD133 expression (CD133; various carcinoma lines of Table 1),reaction of supernatant with human prominin-1 in ELISA (human prominin-1)
"No. 11 scFv: soluble scFv of the Hybridoma Clone 7 antibody expressed in E. coli Top10F', SEQ ID NO:58; also used FITC-labeled (protein, optionally FITC-labeled; scFv polypeptide) scFv: MDIVLSQSPAIMSASPGEKVTISCSASSSVSYMYWYQQKPGSSPKPWIYRTSNLASGVPARFSGSGSGTSYSLTISSMEAEDAATYYCQQYHSYPPTFGAGTKLELKSSGGGGSGGGGGGSSRSSLEVKLVESGPELKKPGETVKISCKASGYTFTDYSMHWVNQAPGKGLKWMGWINTETGEPSYADDFKGRFAFSLETSASTAYLQINNLKNEDTATYFCATDYGDYFDYWGQGTTLTVSS",4.0,62.8,80.0,4.0,5.2,7.1,5.9,4.2,6.0,6,4-7.1%,–
"Hybridoma Clone 7: monoclonal antibody produced by Hybridoma Clone 7 that specifically binds to human CD133 (antibody, V domains shown) VL: DIVLSQSPAIMSASPGEKVTISCSASSSVSYMYWYQQKPGSSPKPWIYRTSNLASGVPARFSGSGSGTSYSLTISSMEAEDAATYYCQQYHSYPPTFGAGTKLELK VH: LEVKLVESGPELKKPGETVKISCKASGYTFTDYSMHWVNQAPGKGLKWMGWINTETGEPSYADDFKGRFAFSLETSASTAYLQINNLKNEDTATYFCATDYGDYFDYWGQGTTLTVSS",–,–,–,–,–,–,–,–,–,–,–,binds its antigen with high specificity and affinity
